This note sets out measurements from article PMC8604728.

In experiment [1] the target is wild-type cholecystokinin A receptor (CCKAR) (UniProt P32238).
A further experiment deals with CCKAR I296G (UniProt P32238).
Experiment [2] concerns the target wild-type cholecystokinin A receptor (CCKAR) (UniProt P32238). The source holds these as a separate data set.

Consider “Gi heterotrimer of the BRET G-protein dissociation assay (from UniProt P63096 1-354; P62873 1-340; P59768 1-71) (complex)”, for which the pEC50 of CCK-8 in the BRET G-protein dissociation assay (Gβγ-Venus to GRK3ct-luciferase), cells with CCKAR and Gi (Supplementary Table 3, Receptor + Gi) in experiment [1] was 7.32.

In the experiment with CCKAR I296G, “Gi heterotrimer of the NanoBiT G-protein recruitment assay (Gαi1, SmBiT-fused human Gβ1, human Gγ2) (from UniProt P63096 1-354; P62873 1-340; P59768 1-71) (complex)” came in with a pEC50 of CCK-8, Gi-coupling activity by NanoBiT G-protein recruitment assay (CCKAR-LgBiT and SmBiT-Gβ1 in sf9 cells; Supplementary Table 4, I296G) of 6.66. In experiment [2], the pEC50 of CCK-8, Gi-coupling activity by NanoBiT G-protein recruitment assay (CCKAR-LgBiT and SmBiT-Gβ1 in sf9 cells; Supplementary Table 4, WT) worked out at 6.81. “Gq heterotrimer of the BRET G-protein dissociation assay (from UniProt P50148 1-359; P62873 1-340; P59768 1-71) (complex)”: the pEC50 of CCK-8 in the BRET G-protein dissociation assay (Gβγ-Venus to GRK3ct-luciferase), cells with CCKAR and Gq (Supplementary Table 3, Receptor + Gq) in experiment [1] was found to be 8.42. In the experiment with CCKAR I296G, this substance came in with a pEC50 of CCK-8, Gq-coupling activity by BRET assay (Supplementary Table 4, I296G) of 8.38. For the same substance, the pEC50 of CCK-8, Gq-coupling activity by BRET assay (Supplementary Table 4, WT) in experiment [2] worked out at 9.14. On to “Gs heterotrimer of the BRET G-protein dissociation assay (from UniProt P63092 1-394; P62873 1-340; P59768 1-71) (complex)”, for which the pEC50 of CCK-8 in the BRET G-protein dissociation assay (Gβγ-Venus to GRK3ct-luciferase), cells with CCKAR and Gs (Supplementary Table 3, Receptor + Gs) in experiment [1] came to 7.92. Take “Gs heterotrimer of the NanoBiT G-protein dissociation assay (Gαs-LgBiT, Gβ, SmBiT-Gγ) (from UniProt P63092 1-394; P62873 1-340; P59768 1-71) (complex)”: the pEC50 of CCK-8, Gs-coupling activity by NanoBiT G-protein dissociation assay (Gαs-LgBiT and SmBiT-Gγ in HEK 293T/17 cells; Supplementary Table 4, I296G) in the experiment with CCKAR I296G was 10.5. Besides, the pEC50 of CCK-8, Gs-coupling activity by NanoBiT G-protein dissociation assay (Gαs-LgBiT and SmBiT-Gγ in HEK 293T/17 cells; Supplementary Table 4, WT) in experiment [2] was 10.5.
